The values below come from patent publication US20210337838A1, “RECOMBINANT EXPRESSION OF FUMONISIN AMINE OXIDASE” (priority 2018, published 2021).

Series [1] can be described thus: FB2 deamination by purified recombinant AnFAO, reverse-phase LC/MS. The format is biochemical. The settings on record: 6 nM enzyme, 1 μM FB2, 0.1 mg/ml catalase, 1 h at 37° C.
Experimental: In particular, all MS data were collected with a Q-Exactive™ Quadrupole Orbitrap™ mass spectrometer (Thermo Scientific, MA, USA) coupled to an Agilent 1290 ultra-high-performance liquid chromatography (UHPLC) system. Fumonisins were resolved on a Zorbax™ Eclipse Plus Rapid Resolution High Definition (RRHD) C18 column (2.1×50 mm, 1.8 μm; Agilent Technologies, CA, USA), maintained at 35° C. The mobile phase was comprised of water with 0.1% formic acid (A), and acetonitrile with 0.1% formic acid (B) (Optima grade, Fisher Scientific, NJ, USA). The gradient consisted of 0% B for 0.5 min before increasing to 100% over 3 min, held at 100% for 2.5 min and reduced to 0% over 0.5 min. The fumonisins were detected in negative ionization mode using the following electrospray conditions: capillary voltage, 4.0 kV; capillary temperature, 400° C.; sheath gas, 17.00 units; auxiliary gas, 8.00 units; probe heater temperature, 450° C.; S Lens RF level, 45.00. […] The five highest intensity ions from the full scan (excluding isotopes) were sequentially selected using a 1.2 m/z isolation window and analyzed at a resolution of 17,500; AGC target, 1×10^5; max IT, 64 ms; normalized collision energy (NCE) 30; threshold intensity 9.1×10^4; and dynamic exclusion of 1.5 s. Fumonisins were detected by accurate mass (±5 ppm) and retention time (±0.1 min) and verified by MS/MS. […]
A short description of series [2]: Fumonisin deamination activity of AnFAO with or without excess FAD. The following applies: enzyme dialyzed in 20 mM MES (pH 6), 150 mM NaCl with additional 50 μM FAD. Format: biochemical. From the text:
The whole mass of AnFAO following denaturation and LC-MS analysis was 51,320.70 Da, which matches the predicted mass of the apo-enzyme (51,320.97 Da) as shown in FIG. 12D. […] AnFAO also lacked the requisite Histidine or Tyrosine residues for covalent 6α-linkages to the FAD backbone, as observed in other covalent flavoproteins (Heuts et al., 2009).

Series [3] can be described thus: Effect of temperature on fumonisin deamination activity, reverse-phase LC/MS. Format: biochemical. The settings on record: 6 nM enzyme. Here is the method: (§1) Activity was measured via reverse-phase LC/MS analysis. […] All proteins were scanned at a concentration of 0.3 mg/ml in buffer containing 20 mM Tris-HCl (pH 7.4), 50 mM NaCl and 0.75 mM DTT. Thermal denaturation was monitored at […] with a temperature scan ranging from 20 to 95° C., increasing by 1° C. per minute with data collection every 30 seconds. Baseline corrected data were converted from millidegrees to mean residue ellipticity, and thermal denaturation curves were produced by nonlinear regression in Graphpad Prism.

Series [4] is described as follows: Circular dichroism thermal denaturation. Format: physicochemical. The following applies: 0.3 mg/ml, 20 mM Tris-HCl (pH 7.4), 50 mM NaCl, 0.75 mM DTT, monitored at 222, 20 to 95° C. Here is the method: as §1
On the technique in general: CD spectra are sensitive to the conformation of chiral molecules.

The procedure of series [5]: (§2) 98 μL of this solution was added to 2 μL of a stock of FB2 in a microfuge tube (2.5 mM) and incubated at 30° C. for 30 mins. At the end of the incubation time, 20 μL of the reaction was diluted with 80 μL of 50 mM HEPES pH 7.0, 150 mM NaCl and 100 μL of this was added in triplicate to wells of a 96-well microplate. 100 μL of Amplex™ red reaction buffer consisting of 50 mM HEPES pH 7.0, 150 mM NaCl, 200 μM Amplex™ red, 2 U/ml horseradish peroxidase was immediately added to each well and absorbance was measured at 571 nm. Rates were calculated based on an H2O2 standard curve and the incubation time taking into account the dilution factors. […] 100 μL of protein sample was added to wells in triplicate in a 96-well microplate. 100 μL of Amplex™ red reaction buffer consisting of 50 mM HEPES pH 7.0, 200 μM Amplex™ red, 2 U/ml horseradish peroxidase and 50 μM FB2 was then added to each well and absorbance was monitored at 571 nm every 10 mins for 1 hr. A standard curve consisting of 0-10 μM H2O2 was included to determine the absorbance for every pmol of H2O2 generated by the reaction.

Series [6] in a line: NaCl dependence of fumonisin deamination activity, Amplex red. Format: biochemical. How it is done:
as §2

The conditions of series [7]: 1 μM enzyme, room temperature, 16 h, corn material in water. How it is done:
Following incubation, 700 μls of extraction solution (78% acetonitrile, 2% ethyl acetate) was added to each sample and incubated at 37° C. with shaking for 45 minutes. This mixture was then centrifuged at 20,000×g and 400 μls of the cleared supernatant was mixed with an equal volume of 50% methanol. Samples were then analyzed for fumonisin contamination by reverse phase HPLC-MS as previously described.

Series [8] in a line: Ethanol tolerance of deamination activity, reverse phase LC/MS.
Series [9] in a line: Amplex red assay of RID+AO enzyme. The following applies: 80 nM enzyme, 25 μM FB1, 50 mM HEPES (pH 7), 150 mM NaCl. Format: biochemical.

Where two headings read alike, the source gives them in different places.

B1: AnFAO_15309 (protein)
chain: MSVSNDPTTKLYDAVIVGAGLSGLQAAHSIQAAGFSVCILEATDRMGGKTLTVKSSEKGYNDLGAAWVNDTNQTEIFKLHQRYGLDGVVQYTCGDDILESGEGVIRKIPYGLPLTGLPKKLLDILRIESSRLDLDDPTSFPGATEVDNLTFRDFCVEKTGSEDVIHITDAISTALLGLNSNELSALYMLYYFKSGSGIDNLLSDERDGAQYLRTRQGTQTIARKMADELTQSDIFLGMPVTSINQTDADAHCVVQTLDGSSFRCRRVIVSIPTTLYRSVSFHPPLPHAKQVLSDHTIMGYYSKVIFIFKEPWWRDAGLTGIVNCAGGPITFTRDTSVPTDDQWSITCFMVGSRGRAWSKLSKDDRYSQVWEQFRRCFEEFVENIPEPVNTLEMEWSKEPYFLGAPCPAMIPGLLTTAGSDLAAPHGKVHFIGTETSTVWRGYMEGAIRAGQRGGAEVVTALQED
modifications: codon-optimized; AnFAO_15309 codon optimized for Saccharomyces cerevisiae
As to B1, in series [1], the “conversion of FB2 into FPy2” value is “Full conversion”. Moreover, the “change in fumonisin deamination activity with additional FAD” value in series [2] is on record as “No difference”. The “optimal temperature of FB2 deamination” value in series [3] (2 μM FB2) stood at 50 °C. Moreover, the “of maximal activity at 21° C.” value in [3] (2 μM FB2, 21° C.) is given as “ca. 35%”. Further, in series [3] (2 μM FB2, 60° C.), the “of maximal activity at 60° C.” value is listed as 52%. For the same molecule, the “activity at 95° C.” value in [3] (2 μM FB2, 95° C.) was “No activity”. This molecule also had a melting temperature in series [4] of 71 °C. Moreover, the “optimal pH of activity” value in series [5] (300 nM enzyme, FB2, 30° C., 30 mins) is recorded as 6. Further, in series [5] (Citrate pH 3.5), the “activity remaining at pH 3.5” value is reported as “ca. 20%”. For the same molecule, the “activity remaining at pH 9.0” value in [5] (Pyrophosphate pH 9) is “ca. 30%”. In series [6] (0 mM NaCl), the “of maximum activity at 0 mM NaCl” value is 70%. Further, the “NaCl concentration of optimal activity” value in series [6] (50 mM HEPES pH 7.0, FB2) is reported as 50 mM. The “of maximum activity at 1 M NaCl” value in series [6] (1 M NaCl) was found to be 66%. Besides, the entries for the “intact fumonisins remaining after treatment” value in [7] and in [7] (listed as AnFAO) were “no intact fumonisins remained” and “No intact fumonisin remained”, respectively. Also, in series [8] (10 nM enzyme, 1 μM FB2, 30 minutes at 37° C., 5% EtOH), the “activity remaining at 5% EtOH” value was 71%. In series [8] (10 nM enzyme, 1 μM FB2, 30 minutes at 37° C., 10% EtOH), the “activity remaining at 10% EtOH” value is 43%. In [8] (10 nM enzyme, 1 μM FB2, 30 minutes at 37° C., 20% EtOH), the “activity remaining at 20% EtOH” value turned out to be 12%. Moreover, the “deamination activity at 30% EtOH” value in [8] (30% EtOH) was “Negligible amounts”. Moreover, the “deamination activity at 40% EtOH” value in series [8] (40% EtOH) is listed as “Negligible amounts”.

B2: RID+AO: GST-tagged 597 amino acid A. niger enzyme with N-terminal Reactive Intermediate Deaminase domain and C-terminal amine oxidase domain (protein)
chain: MAPAPVLATSAYYAPGVVSSASKYLHVSGQPGTIEGTAPADYNSQIHLALVNLHRVLAATGATPRDVVKLTLYIVDYDPNNRLHTRPLQTWLAGHKPAITLVPVPQLAVPDWKFEIEATVAVPDSIPASLSLPSPTETTDVLVIGAGLSGLMAAETTLQSGHSCIVLEGRDRVGGKTWTCPLPSGTGVVDLGAAWINDTNQSMMYELARRAGADLIEQNTTGNCLLQREDGAITAFPYGQTPCITPQIVKEIEAIRDTAEQDCQSFSTSRPQSPALDSLSFLAYLHSRNASPIAAANASVWTRAMLGQEPQDISALYFLNYCKSGGGLLQMRSDRKHGAQYLRVRQGTQIFAKTLAESLPTDTIRFGQRVVGITQVQKGVNYVQTESGLVVKARKVICSVPTPVLKTIKFEPQLPAAKQLLVDSFRYGYYTKVMLSFRTAWWADRGFCGLAQSFVGPASIYRDTSSPEDGKWVLTAFLAGDAGRNWSALGSQRERELALLEQLGAIYGDKDLPKREFVEALGHEWSTEELSGWGCPCPALPPGVLTLAGDALREPFRDVHFVGTETAEEWKGYMEGAVRSGKRGAAEAVKGLTRSQL
modifications: GST tag; Aspergillus niger
B2: the activity towards fumonisins entry in series [9] was “no activity”.
